Measurements reported in US20220396627A1.

Experiments:
[1] = biological target: Human Siglec-9-Fc (recombinant human Siglec-9 extracellular domain Q18-G348 fused to human IgG1 Fc) (human); test: BLI binning, hSiglec-9-Fc on AHC sensor; competitor bound first (row): 12L19
[2] = biological target: Human Siglec-9-Fc (recombinant human Siglec-9 extracellular domain Q18-G348 fused to human IgG1 Fc) (human); test: BLI binning, hSiglec-9-Fc on AHC sensor; competitor bound first (row): 3L02 (self)
[3] = biological target: Human Siglec-9-Fc (recombinant human Siglec-9 extracellular domain Q18-G348 fused to human IgG1 Fc) (human); test: BLI binning, hSiglec-9-Fc on AHC sensor; competitor bound first (row): 13J19
[4] = biological target: Human Siglec-9-Fc (recombinant human Siglec-9 extracellular domain Q18-G348 fused to human IgG1 Fc) (human); test: BLI binning, hSiglec-9-Fc on AHC sensor; competitor bound first (row): 12P18
[5] = biological target: Human Siglec-9-Fc (recombinant human Siglec-9 extracellular domain Q18-G348 fused to human IgG1 Fc) (human); test: BLI binning, hSiglec-9-Fc on AHC sensor; competitor bound first (row): 13O18
[6] = biological target: Human Siglec-9-Fc (recombinant human Siglec-9 extracellular domain Q18-G348 fused to human IgG1 Fc) (human); test: BLI binning, hSiglec-9-Fc on AHC sensor; competitor bound first (row): 2F15
[7] = biological target: Human Siglec-9-Fc (recombinant human Siglec-9 extracellular domain Q18-G348 fused to human IgG1 Fc) (human); test: BLI binning, hSiglec-9-Fc on AHC sensor; competitor bound first (row): 9D21
[8] = biological target: Human Siglec-9-Fc (recombinant human Siglec-9 extracellular domain Q18-G348 fused to human IgG1 Fc) (human); test: BLI binning, hSiglec-9-Fc on AHC sensor; competitor bound first (row): 13H10 (printed 13H110)
[9] = biological target: Human Siglec-9-Fc (recombinant human Siglec-9 extracellular domain Q18-G348 fused to human IgG1 Fc) (human); test: BLI binning, hSiglec-9-Fc on AHC sensor; competitor bound first (row): 9C15
[10] = biological target: Human Siglec-9-Fc (recombinant human Siglec-9 extracellular domain Q18-G348 fused to human IgG1 Fc) (human); test: BLI binning, hSiglec-9-Fc on AHC sensor; competitor bound first (row): 12G23

Human Siglec-9-Fc (recombinant human Siglec-9 extracellular domain Q18-G348 fused to human IgG1 Fc) (human), sequence (chain, as listed by the source limits assumed): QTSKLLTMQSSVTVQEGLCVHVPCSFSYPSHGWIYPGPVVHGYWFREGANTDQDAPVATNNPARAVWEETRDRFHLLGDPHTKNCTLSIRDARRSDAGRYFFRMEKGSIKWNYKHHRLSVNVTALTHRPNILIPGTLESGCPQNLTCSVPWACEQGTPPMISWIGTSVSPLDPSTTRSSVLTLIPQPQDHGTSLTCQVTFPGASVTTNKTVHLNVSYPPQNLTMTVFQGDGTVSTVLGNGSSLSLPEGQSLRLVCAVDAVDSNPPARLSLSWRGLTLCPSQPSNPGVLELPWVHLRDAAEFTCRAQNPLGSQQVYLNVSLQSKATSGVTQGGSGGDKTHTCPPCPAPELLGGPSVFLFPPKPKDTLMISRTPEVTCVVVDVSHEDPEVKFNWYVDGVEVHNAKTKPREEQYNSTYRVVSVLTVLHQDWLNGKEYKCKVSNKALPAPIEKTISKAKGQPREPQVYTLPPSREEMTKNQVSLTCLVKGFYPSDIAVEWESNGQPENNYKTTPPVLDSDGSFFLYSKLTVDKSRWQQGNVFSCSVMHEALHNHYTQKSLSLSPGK

B1: 3L02 (antibody, V domains shown)
VH: DVQLQESGPGMVKPSQSLSLTCTVTGYSITSGYDWHWIRHFPGNKLEWMGYISYSAGTNYNPSLKSRISITHDTSKNHFFLKLNSVTTEDTATYYCAREGLTAYWYFDVWGTGTTVTVSS
VL: DIVMTQSQKFMSTSVGDRVSVTCKASQTVGTNVAWYQQKPGQSPKPLIYSASYRYSGVPDRFTGSGSGTDFTLTISNVQSEDLAEYFCQQYDSFPLTFGSGTKLEIK
- maximum binding nm shift [1]: -0.053 nm
- maximum binding nm shift [2]: 0 nm
- maximum binding nm shift [3]: 0.085 nm
- maximum binding nm shift [4]: 0.214 nm
- maximum binding nm shift [5]: 0.091 nm
- maximum binding nm shift [6]: 0.099 nm
- maximum binding nm shift [7]: 0.188 nm
- maximum binding nm shift [8]: -0.064 nm
- maximum binding nm shift [9]: 0.14 nm
- maximum binding nm shift [10]: 0.031 nm
